These results are taken from the supplement of paper PMC7125110.

The labels stand for the following.
B1: glmS ribozyme (parent)
chain: AUAAAAGCGCCAGAACUACAGAAAUGUAGUUGACGAGGAGGAGGUUUAUCGAAUUUUCGGCGGAUGCCUCCAAA

Common to all, as to conditions: with glucosamine-6-phosphate
The variants in data set [1] derive from B1. The data set can be described thus: self-cleavage kobs at 160 uM GlcN6P; higher = faster cleavage; RNA array. The essentials:
(§1)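 Using a hybridised Cy3 probe at 37 °C, barcoded ribozyme variants transcribed in situ by E. coli RNA polymerase on sequenced MiSeq chips were monitored across tiles imaged over ~14 h. The flow contained glucosamine-6-phosphate from 40 μM to 10 mM in HEPES/KCl/Mg(OAc)2 buffer. Signals were normalised to baseline and to non-cleaving reference variants before per-tile medians were fit to one- or two-exponential decays to yield kobs. Weighted Michaelis–Menten fits across concentrations gave kcat and KM.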

Variants of B1 are the subject of data set [2]. The data set can be described thus: self-cleavage kobs at 640 uM GlcN6P; higher = faster cleavage; RNA array. The procedure, abridged: as §1
Data set [3] covers variants of B1. The data set can be described thus: self-cleavage kobs at 2500 uM GlcN6P; higher = faster cleavage; RNA array. The essentials:
as §1

Data set [4] covers variants of B1. The data set can be described thus: self-cleavage kobs at 10000 uM GlcN6P; higher = faster cleavage; RNA array. The essentials: as §1

± gives the standard error. Fewer inactive variants are shown than the library holds. Where only a bound is given, the exact number is not on record here.

Consider AUAAAAGCGCCAGAACUACAGAAAUGUAGUUUACGAGGAGGAGGUUUAUCUAUUUUUCGGCGGAUUCCUCUAAA [G32U G51U A53U G66U C71U], for which the “self-cleavage kobs at 160 uM GlcN6P” value with glucosamine-6-phosphate [1] was under 1e-05 s⁻¹. In addition, the “self-cleavage kobs at 640 uM GlcN6P” value in the data set with glucosamine-6-phosphate [2] is under 1e-05 s⁻¹. Further, the “self-cleavage kobs at 2500 uM GlcN6P” value in the data set with glucosamine-6-phosphate [3] is under 1e-05 s⁻¹.
Consider AUAAAAGCGCUUGAACUACAGAAAUGUAGUUGACGAGGAGGAGGUUUAUCGAAUUUUCGGCGGAUGCCUCAAAA [C11U A12U C71A], for which, in the data set with glucosamine-6-phosphate [1], the “self-cleavage kobs at 160 uM GlcN6P” value was 8.52e-05 ± 2.9e-05 s⁻¹. In the data set with glucosamine-6-phosphate [2], the “self-cleavage kobs at 640 uM GlcN6P” value amounted to 0.000232 ± 4.5e-05 s⁻¹. Besides, the “self-cleavage kobs at 2500 uM GlcN6P” value with glucosamine-6-phosphate [3] is 0.000457 ± 8.7e-05 s⁻¹.
Taken in the same sequence, the figures for AUAAAAGCACCAGAACUACAGAAAUGUAGUUGAAGAGGAGGAGGUUUAUCGAAUUUUCCGCGGAUGCCUCCAAA [G9A C34A G59C] were under 1e-05 s⁻¹, under 1e-05 s⁻¹ and under 1e-05 s⁻¹.
With AUAAAAGCGCCAGAACUACAGAAAUGUAGUUGGCGAGGAGGAGGUUUCUCGGAUUUUCGGCGGAUGCCUCCAAA [A33G A48C A52G], the “self-cleavage kobs at 160 uM GlcN6P” value with glucosamine-6-phosphate [1] was under 1e-05 s⁻¹. Further, in the data set with glucosamine-6-phosphate [2], the “self-cleavage kobs at 640 uM GlcN6P” value is under 1e-05 s⁻¹.
AUAAAAGCGCCAGAACUACAGAAAUGUAUUUGACGACGAGGCGGUAUAUCGAAUUUUCGGCGGAUGCCUCCAAA [G29U G37C A42C U46A]: the “self-cleavage kobs at 160 uM GlcN6P” value with glucosamine-6-phosphate [1] is under 1e-05 s⁻¹. Besides, the “self-cleavage kobs at 640 uM GlcN6P” value with glucosamine-6-phosphate [2] is under 1e-05 s⁻¹.
Take AUAAAAGCGCCAGAACUACAGAAAUGUAGUUGACGAAGAGGAGGUGUAUCGAGUUUUCGGAGGAUGCCUACAAA [G37A U46G A53G C61A C70A]: in the data set with glucosamine-6-phosphate [1], the “self-cleavage kobs at 160 uM GlcN6P” value is under 1e-05 s⁻¹.
Consider AUAAAAGCGCCAGAACUACAGAAAUGUAGUUGACGAGGAGGAGGUUUAUCGUAUUUUCGCCGGAUGCCUCCAAA [A52U G60C], for which, in the data set with glucosamine-6-phosphate [1], the “self-cleavage kobs at 160 uM GlcN6P” value was under 1e-05 s⁻¹. Moreover, in the data set with glucosamine-6-phosphate [2], the “self-cleavage kobs at 640 uM GlcN6P” value was under 1e-05 s⁻¹. For the same variant, the “self-cleavage kobs at 10000 uM GlcN6P” value with glucosamine-6-phosphate [4] was under 1e-05 s⁻¹.
For the variant AUAAAAGCGCCAGAACUACAGAAAUGUAGUUGACGAGGAGGAGCUUUAUCUAAUUUUCGGCGGAUGCGUCCAAA [G44C G51U C68G], in the data set with glucosamine-6-phosphate [1], the “self-cleavage kobs at 160 uM GlcN6P” value is under 1e-05 s⁻¹.
In the case of AUAAAAGCGCCAGAACUACAGAAAUGUAGUUGACCAGGAGGAGGUUUAUCGAAUUUUCGGCGGAUGCCUUCAAA [G35C C70U], the “self-cleavage kobs at 160 uM GlcN6P” value with glucosamine-6-phosphate [1] is under 1e-05 s⁻¹. Also, in the data set with glucosamine-6-phosphate [2], the “self-cleavage kobs at 640 uM GlcN6P” value was under 1e-05 s⁻¹. In addition, in the data set with glucosamine-6-phosphate [4], the “self-cleavage kobs at 10000 uM GlcN6P” value is under 1e-05 s⁻¹.
As for AUAAAAGCGCCAGAACUACAGAAAUGUAGUUGACGAGUAGGUGGUUUAUCGAAUUUUCGGCUGAUGCCUCCAAA [G38U A42U G62U], the “self-cleavage kobs at 160 uM GlcN6P” value in the data set with glucosamine-6-phosphate [1] is under 1e-05 s⁻¹. Moreover, the “self-cleavage kobs at 640 uM GlcN6P” value with glucosamine-6-phosphate [2] was under 1e-05 s⁻¹. Also, the “self-cleavage kobs at 2500 uM GlcN6P” value with glucosamine-6-phosphate [3] was under 1e-05 s⁻¹.
In the case of AUAAAAGCGCCAGAACUACAGAAAUGUAGUUUAGGAGGAGGAAGUUUAUCGAAUUUUCGGCGGAUGCCUCCAAA [G32U C34G G43A], in the data set with glucosamine-6-phosphate [1], the “self-cleavage kobs at 160 uM GlcN6P” value is under 1e-05 s⁻¹. Also, in the data set with glucosamine-6-phosphate [2], the “self-cleavage kobs at 640 uM GlcN6P” value was under 1e-05 s⁻¹. Also, the “self-cleavage kobs at 2500 uM GlcN6P” value with glucosamine-6-phosphate [3] was under 1e-05 s⁻¹.
On to AUAAAAGCGCCAGGACUACAGAAAUGUAGUUGACGAGGAGGAGGUUUAUCGAAUUGCCGGCGGAUGCCUCCAAA [A14G U56G U57C], for which, in the data set with glucosamine-6-phosphate [1], the “self-cleavage kobs at 160 uM GlcN6P” value is 3.78e-05 ± 1.6e-05 s⁻¹. Also, the “self-cleavage kobs at 640 uM GlcN6P” value with glucosamine-6-phosphate [2] was found to be 5.18e-05 ± 1.5e-05 s⁻¹. Further, the “self-cleavage kobs at 2500 uM GlcN6P” value in the data set with glucosamine-6-phosphate [3] was found to be 0.000269 ± 8.2e-05 s⁻¹.
As for AUAAAAGCGCCAGAACUACAGAAAUGUAGUUGACGACGAGGACGUUUAUCGAAUUUUCGGCGGAUGCCUCCAAA [G37C G43C], the “self-cleavage kobs at 160 uM GlcN6P” value with glucosamine-6-phosphate [1] is under 1e-05 s⁻¹. Further, in the data set with glucosamine-6-phosphate [2], the “self-cleavage kobs at 640 uM GlcN6P” value is under 1e-05 s⁻¹. Besides, the “self-cleavage kobs at 2500 uM GlcN6P” value with glucosamine-6-phosphate [3] is under 1e-05 s⁻¹. In addition, in the data set with glucosamine-6-phosphate [4], the “self-cleavage kobs at 10000 uM GlcN6P” value is under 1e-05 s⁻¹.
Turning to AUAAAAGCGCCAGAACUACAGAAAUGUAGUUGACGAGGAGGAGUUUUAUCGAAUUUUCGGCGUAUGCCUCCAAA [G44U G63U], the “self-cleavage kobs at 160 uM GlcN6P” value with glucosamine-6-phosphate [1] was under 1e-05 s⁻¹. Moreover, the “self-cleavage kobs at 640 uM GlcN6P” value with glucosamine-6-phosphate [2] is under 1e-05 s⁻¹. In addition, the “self-cleavage kobs at 2500 uM GlcN6P” value with glucosamine-6-phosphate [3] is under 1e-05 s⁻¹. The “self-cleavage kobs at 10000 uM GlcN6P” value in the data set with glucosamine-6-phosphate [4] is under 1e-05 s⁻¹.
